T1: mouse PD-1 on cells (mouse, UniProt Q02242 25-288)
T1 sequence (looked up): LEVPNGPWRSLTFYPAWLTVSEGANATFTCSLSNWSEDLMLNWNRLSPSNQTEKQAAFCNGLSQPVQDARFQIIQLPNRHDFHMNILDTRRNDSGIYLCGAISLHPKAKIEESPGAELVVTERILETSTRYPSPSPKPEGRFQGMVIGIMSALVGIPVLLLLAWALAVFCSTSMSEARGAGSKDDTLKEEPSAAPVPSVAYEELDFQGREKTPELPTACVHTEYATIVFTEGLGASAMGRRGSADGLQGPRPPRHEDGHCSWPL

T2: recombinant mouse MAdCAM-1 (mouse, UniProt Q61826 22-365, limits assumed)
T2 construct: also called mMAdCAM-1; mouse MAdCAM-Fc
T2 sequence (looked up): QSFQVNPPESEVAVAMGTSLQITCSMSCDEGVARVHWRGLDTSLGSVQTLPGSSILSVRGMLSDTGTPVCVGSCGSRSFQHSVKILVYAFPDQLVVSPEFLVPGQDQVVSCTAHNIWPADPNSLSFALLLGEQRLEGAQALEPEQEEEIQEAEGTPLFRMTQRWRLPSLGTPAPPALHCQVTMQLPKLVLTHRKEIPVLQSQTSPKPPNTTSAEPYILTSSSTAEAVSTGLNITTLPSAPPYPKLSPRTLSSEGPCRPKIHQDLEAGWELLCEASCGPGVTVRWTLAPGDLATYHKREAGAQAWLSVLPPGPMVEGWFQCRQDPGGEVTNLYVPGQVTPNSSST

T3: human MAdCAM expressed on cells (human, UniProt Q13477 19-382)
T3 construct: whole, on cells; also called MADCAM1
T3 sequence (looked up): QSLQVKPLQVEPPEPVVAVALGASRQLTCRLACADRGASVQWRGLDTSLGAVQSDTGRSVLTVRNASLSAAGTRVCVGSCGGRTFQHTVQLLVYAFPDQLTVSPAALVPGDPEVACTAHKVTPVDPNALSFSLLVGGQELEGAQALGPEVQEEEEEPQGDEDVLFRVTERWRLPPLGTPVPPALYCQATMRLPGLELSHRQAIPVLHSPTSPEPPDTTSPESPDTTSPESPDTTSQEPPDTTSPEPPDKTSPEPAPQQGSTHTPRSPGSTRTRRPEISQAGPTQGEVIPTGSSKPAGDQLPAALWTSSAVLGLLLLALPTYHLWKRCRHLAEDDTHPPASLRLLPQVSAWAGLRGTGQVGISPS

T4: mouse MAdCAM expressed on cells (mouse, UniProt Q61826 22-405)
T4 construct: whole, on cells
T4 sequence (looked up): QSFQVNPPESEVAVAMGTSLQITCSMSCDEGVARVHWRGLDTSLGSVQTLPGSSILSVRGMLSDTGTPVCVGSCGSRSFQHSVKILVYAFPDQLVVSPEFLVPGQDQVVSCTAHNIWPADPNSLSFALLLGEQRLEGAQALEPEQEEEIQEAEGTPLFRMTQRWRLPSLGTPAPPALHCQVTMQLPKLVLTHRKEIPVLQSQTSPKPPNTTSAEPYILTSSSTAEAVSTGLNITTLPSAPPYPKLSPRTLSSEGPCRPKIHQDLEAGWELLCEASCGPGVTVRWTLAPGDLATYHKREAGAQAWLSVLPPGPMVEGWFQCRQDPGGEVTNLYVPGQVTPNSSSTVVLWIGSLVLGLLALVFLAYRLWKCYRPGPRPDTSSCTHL


Experiments:
mouse PD-1 on cells = biological target: T1, mouse PD-1 on cells; test: cell-based or functional assay
[1] = biological target: T2, recombinant mouse MAdCAM-1; test: Octet
[2] = biological target: T3, human MAdCAM expressed on cells; test: cell binding
[3] = biological target: T4, mouse MAdCAM expressed on cells; test: cell binding

| Binder | Mouse agonist-CTG: IC50, IgG1 (mouse PD-1 on cells) [nM] | binding result [1] | binding result [2] | binding result [3] |
| --- | --- | --- | --- | --- |
| PD1AB22 (antibody, IgG1, V domains shown) VH: QVQLVQSGAEVKKPGASVKVSCKASGYTFSGYYMHWVRQAPGQGLEWMGVINPSGGSTSYAQKFQGRVTMTRDTSTSTVYMELSSLRSEDTAVYYCAEGFDYWGQGTLVTVSS VL: EIVMTQSPATLSVSPGERATLSCRASQGVGRSLAWYQQKPGQAPRLLIYGASTRATGIPARFSGSGSGTEFTLTISSLQSEDFAVYYCQQYYTTPITFGQGTRLEIK | < 10 | – | – | – |
| PD1AB4 (antibody, IgG1, V domains shown) VH: QVQLVQSGAEVKKPGASVKVSCKASGYSFTTYYMHWVRQAPGQGLEWMGIINPSGGSTSYAQKFQGRVTMTRDTSTSTVYMELSSLRSEDTAVYYCASGWVYWGQGTLVTVSS VL: DIQMTQSPSSLSASVGDRVTITCQASRDIKNYLAWYQQKPGKAPKLLIYAASSLQSGVPSRFSGSGSGTDFTLTISSLQPEDFATYYCQQSYSTPPTFGPGTKVDIK | < 10 | – | – | – |
| PD1AB18 (antibody, IgG1, V domains shown) VH: QVQLVQSGAEVKKPGASVKVSCKASGYTFTDYAMHWVRQAPGQGLEWMGWLNPNSGNTGYAPKFQGRVTMTRDTSTSTVYMELSSLRSEDTAVYYCAAGLFIWGQGTMVTVSS VL: DIQMTQSPSSLSASVGDRVTITCRASQSINRWLAWYQQKPGKAPKLLIYDASSLESGVPSRFSGSGSGTDFTLTISSLQPEDFATYYCQQSYSIPITFGQGTRLEIK | < 10 | – | – | – |
| PD1AB20 (antibody, IgG1, V domains shown) VH: QVQLVQSGAEVKKPGASVKVSCKASGYTFSDHYMHWVRQAPGQGLEWMGTINPSGGRTSYAQKFQGRVTMTRDTSTSTVYMELSSLRSEDTAVYYCAADNGHASGWLYYYGMDVWGQGTTVTVSS VL: DIQMTQSPSSLSASVGDRVTITCRASQSISNWVAWYQQKPGKAPKLLIYRASTLQSGVPSRFSGSGSGTDFTLTISSLQPEDFATYYCQQSHSLPLTFGPGTKVDIK | < 10 | – | – | – |
| PD1AB6 (antibody, IgG1, V domains shown) VH: EVQLLESGGGLVQPGGSLRLSCAASGFTFSNYPMHWVRQAPGKGLEWVALISDDGTNEHYADSVKGRFTISRDNSKNTLYLQMNSLRAEDTAVYYCARDSKFANYYYYYDMDVWGQGTTVTVSS VL: DIQMTQSPSSLSASVGDRVTITCRASQSINNYLSWYQQKPGKAPKLLIYDASNLETGVPSRFSGSGSGTDFTLTISSLQPEDFATYYCQQSYSTPLTFGPGTKVDIK | < 10 | – | – | – |

Results, then the binder that gave them:

| Mouse agonist-CTG: IC50, IgG1 (mouse PD-1 on cells) [nM] | binding result [1] | binding result [2] | binding result [3] | Binder |
| --- | --- | --- | --- | --- |
| < 10 | – | – | – | PD1AB23 (antibody, IgG1, V domains shown) VH: QVQLVQSGAEVKKPGASVKVSCKASGGTFSNYAISWVRQAPGQGLEWMGWMNPNSGNTGYAQKFQGRVTMTRDTSTSTVYMELSSLRSEDTAVYYCARVNYYYYYGMDVWGQGTTVTVSS VL: DIQMTQSPSSLSASVGDRVTITCQASQDISNYLNWYQQKPGKAPKLLIYKASTLKSGVPSRFSGSGSGTDFTLTISSLQPEDFATYYCQQADNLPFTFGPGTKVDIK |
| – | no binding | binds | no binding | MAdCAM Antibody Table 2 Clone 65 (antibody, human IgG1, V domains shown) VH: QVQLVQSGAEVKKPGASVKVSCKASGYTFTSYDINWVRQAPGQGLEWMGWMNPNSGNTGYAQKFQGRVTMTRDTSTSTVYMELSSLRSEDTAVYYCAKDSDYSNLLWDYWGQGTLVTVSS VL: DIQMTQSPSSLSASVGDRVTITCRASQDITNDLGWYQQKPGKAPKLLIYQASSLESGVPSRFSGSGSGTDFTLTISSLQPEDFATYYCQQSYTIPLTFGQGTKVEIK |
| – | no binding | binds | no binding | MAdCAM Antibody Table 2 Clone 74 (antibody, human IgG1, V domains shown) VH: QVQLVQSGAEVKKPGASVKVSCKASGYTFTGYYMHWVRQAPGQGLEWMGIINPSGGNTKYAQKFQGRVTMTRDTSTSTVYMELSSLRSEDTAVYYCTTADYYYYMDVWGKGTTVTVSS VL: DIQMTQSPSSLSASVGDRVTITCRASQGISNYLAWYQQKPGKAPKLLIYAASSLQSGVPSRFSGSGSGTDFTLTISSLQPEDFATYYCQQYYSNADFGQGTKVEIK |
